Data from US8632989B1, “Mutant insulin degrading enzyme and methods of use” (University of Kentucky Research Foundation, priority 2011, dated 2014).
Like-named read-outs stand apart in the source and are kept apart here.

How the values were obtained:
Abz-GGFLRKHGQ-EDDnp [1] = target: T1, Abz-GGFLRKHGQ-EDDnp
T1 chain: GGFLRKHGQ

Abz-GGFLRKHGQ-EDDnp [2] = experiment: Enzyme activity assay, kinetics of wild type rIDE and distal site mutants with fluorogenic substrate; type: biochemical; conditions: Abz-GGFLRKHGQ-EDDnp substrate
Description: FIG. 17. Effects of distal site mutations. (A) Comparison of the kinetics of wild type IDE with the distal site mutants. Activity was measured with varying amounts of Abz-[…]-EDDnp (SEQ ID NO:3) substrate as indicated. Either hyperbolic (Michaelis-Menten equation) or sigmoidal curves (Hill equation) were fit to the data. (B) Effect of bradykinin on the activity of wild type IDE and the distal site mutants. (C) Activation of wild type IDE and distal site mutants by ATP. Relative activity is the fold activation above the level of the wild type enzyme alone.
The activity of IDE was measured by following the increase in fluorescence upon hydrolysis at the L-R bond of the fluorogenic peptide Abz-[…]-EDDnp (SEQ ID NO:3) on a SpectraMax Gemini XS fluorescence plate reader using an excitation wavelength of 318 nm and emission wavelength of 419 nm. Reactions were carried out in 200 μl volumes containing 50 mM Tris-HCl, pH 7.4, 1.92 μg of wild type rIDE, 4.6 μg of rIDE-V360S, 4.3 μg rIDE-I374S, or 1.63 μg of rIDE-Y609F. For measurements of activation by bradykinin, IDE activity was determined with 10 μM Abz-[…]-EDDnp (SEQ ID NO:3) as substrate in 50 mM Tris-HCl buffer, pH 7.4. The amount of protein was 0.5 μg for wild type rIDE and 5 μg for each of the IDE distal-site mutants. Data were analyzed using Softmax 4.0 (Molecular Devices) and kinetic parameters calculated with Prism (Graphpad Software). […] Under these assay conditions, both wild type and mutant rIDE are almost completely dimeric.

B1: wild type rat IDE (rIDE), Example 2 (protein)
chain: MNNPAIQRIEDHIVKSPEDKREYRGLELANGIKVLLISDPTTDKSSAALDVHIGSLSDPPNIPGLSHFCEHMLFLGTKKYPKENEYSQFLSEHAGSSNAFTSGEHTNYYFDVSHEHLEGALDRFAQFFLCPLFDASCKDREVNAVDSEHEKNVMNDAWRLFQLEKATGNPKHPFSKFGTGNKYTLETRPNQEGIDVREELLKFHSTYYSSNLMAICVLGRESLDDLTNLVVKLFSEVENKNVPLPEFPEHPFQEEHLKQLYKIVPIKDIRNLYVTFPIPDLQQYYKSNPGHYLGHLIGHEGPGSLLSELKSKGWVNTLVGGQKEGARGFMFFIINVDLTEEGLLHVEDIILHMFQYIQKLRAEGPQEWVFQECKDLNAVAFRFKDKERPRGYTSKIAGKLHYYPLNGVLTAEYLLEEFRPDLIDMVLDKLRPENVRVAIVSKSFEGKTDRTEQWYGTQYKQEAIPEDVIQKWQNADLNGKFKLPTKNEFIPTNFEILALEKDATPYPALIKDTAMSKLWFKQDDKFFLPKACLNFEFFSPFAYVDPLHCNMAYLYLELLKDSLNEYAYAAELAGLSYDLQNTIYGMYLSVKGYNDKQPILLKKITEKMATFEIDKKRFEIIKEAYMRSLNNFRAEQPHQHAMYYLRLLMTEVAWTKDELKEALDDVTLPRLKAFIPQLLSRLHIEALLHGNITKQAALGVMQMVEDTLIEHAHTKPLLPSQLVRYREVQLPDRGWFVYQRRNEVHNNCGIEIYYQTDMQSTSENMFLELFCQIISEPCFNTLRTKEQLGYIVFSGPRRANGIQGLRFIIQSEKPPHYLESRVEAFLITMEKAIEDMTEEAFQKHIQALAIRRLDKPKKLSAECAKYWGEIISQQYNYDRDNIEVAYLKTLSKDDIIKFYKEMLAVDAPRRHKVSVHVLAREMDSCPVVGEFPSQNDINLSEAPPLPQPEVIHNMTEFKRGLPLFPLVKPHINFMAAKL
Abz-GGFLRKHGQ-EDDnp [1]
  Hill coefficient: 1.8
  Km: 15.9 µM
  Specific activity: 8,131 nmol/min/mg for the wild type enzyme
  Vmax: 35.5 nmol/min/mg
bradykinin, P01042
bradykinin, P01042, sequence (P01042 whole entry, looked up): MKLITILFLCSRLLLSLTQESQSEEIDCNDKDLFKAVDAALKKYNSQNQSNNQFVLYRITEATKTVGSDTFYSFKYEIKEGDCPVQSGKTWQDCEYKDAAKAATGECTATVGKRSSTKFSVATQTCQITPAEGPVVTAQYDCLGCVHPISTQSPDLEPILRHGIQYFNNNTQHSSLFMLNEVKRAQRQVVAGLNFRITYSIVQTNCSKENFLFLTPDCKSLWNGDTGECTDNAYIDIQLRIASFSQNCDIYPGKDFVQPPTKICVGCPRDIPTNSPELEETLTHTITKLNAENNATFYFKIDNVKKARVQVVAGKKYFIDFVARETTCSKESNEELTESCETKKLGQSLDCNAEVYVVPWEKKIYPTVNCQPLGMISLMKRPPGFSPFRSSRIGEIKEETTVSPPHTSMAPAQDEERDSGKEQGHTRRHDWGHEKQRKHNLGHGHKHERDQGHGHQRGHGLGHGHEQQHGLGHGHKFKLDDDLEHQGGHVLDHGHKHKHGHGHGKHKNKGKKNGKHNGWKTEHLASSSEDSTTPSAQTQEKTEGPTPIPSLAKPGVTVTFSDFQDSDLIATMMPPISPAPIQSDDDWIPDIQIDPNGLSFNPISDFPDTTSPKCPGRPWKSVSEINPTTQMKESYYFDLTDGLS
  Heterotropic activation of Abz-GGFLRKHGQ-EDDnp hydrolysis: approximately 4-fold for the wild type enzyme

B2: rIDE-E111F (protein)
chain: MNNPAIQRIEDHIVKSPEDKREYRGLELANGIKVLLISDPTTDKSSAALDVHIGSLSDPPNIPGLSHFCFHMLFLGTKKYPKENEYSQFLSEHAGSSNAFTSGEHTNYYFDVSHEHLEGALDRFAQFFLCPLFDASCKDREVNAVDSEHEKNVMNDAWRLFQLEKATGNPKHPFSKFGTGNKYTLETRPNQEGIDVREELLKFHSTYYSSNLMAICVLGRESLDDLTNLVVKLFSEVENKNVPLPEFPEHPFQEEHLKQLYKIVPIKDIRNLYVTFPIPDLQQYYKSNPGHYLGHLIGHEGPGSLLSELKSKGWVNTLVGGQKEGARGFMFFIINVDLTEEGLLHVEDIILHMFQYIQKLRAEGPQEWVFQECKDLNAVAFRFKDKERPRGYTSKIAGKLHYYPLNGVLTAEYLLEEFRPDLIDMVLDKLRPENVRVAIVSKSFEGKTDRTEQWYGTQYKQEAIPEDVIQKWQNADLNGKFKLPTKNEFIPTNFEILALEKDATPYPALIKDTAMSKLWFKQDDKFFLPKACLNFEFFSPFAYVDPLHCNMAYLYLELLKDSLNEYAYAAELAGLSYDLQNTIYGMYLSVKGYNDKQPILLKKITEKMATFEIDKKRFEIIKEAYMRSLNNFRAEQPHQHAMYYLRLLMTEVAWTKDELKEALDDVTLPRLKAFIPQLLSRLHIEALLHGNITKQAALGVMQMVEDTLIEHAHTKPLLPSQLVRYREVQLPDRGWFVYQRRNEVHNNCGIEIYYQTDMQSTSENMFLELFCQIISEPCFNTLRTKEQLGYIVFSGPRRANGIQGLRFIIQSEKPPHYLESRVEAFLITMEKAIEDMTEEAFQKHIQALAIRRLDKPKKLSAECAKYWGEIISQQYNYDRDNIEVAYLKTLSKDDIIKFYKEMLAVDAPRRHKVSVHVLAREMDSCPVVGEFPSQNDINLSEAPPLPQPEVIHNMTEFKRGLPLFPLVKPHINFMAAKL
Abz-GGFLRKHGQ-EDDnp [1]
  Specific activity: 5.2 nmol/min/mg for the E111F mutant
Abz-GGFLRKHGQ-EDDnp [2]
  Specific activity: 5.2 nmol/min/mg

B3: wild type rat IDE, Example 1 (protein)
chain: TMNNPAIQRIEDHIVKSPEDKREYRGLELANGIKVLLISDPTTDKSSAALDVHIGSLSDPPNIPGLSHFCFHMLFLGTKKYPKENEYSQFLSEHAGSSNAFTSGEHTNYYFDVSHEHLEGALDRFAQFFLCPLFDASCKDREVNAVDSEHEKNVMNDAWRLFQLEKATGNPKHPFSKFGTGNKYTLETRPNQEGIDVREELLKFHSTYYSSNLMAICVLGRESLDDLTNLVVKLFSEVENKNVPLPEFPEHPFQEEHLKQLYKIVPIKDIRNLYVTFPIPDLQQYYKSNPGHYLGHLIGHEGPGSLLSELKSKGWVNTLVGGQKEGARGFMFFIINVDLTEEGLLHVEDIILHMFQYIQKLRAEGPQEWVFQECKDLNAVAFRFKDKERPRGYTSKIAGKLHYYPLNGVLTAEYLLEEFRPDLIDMVLDKLRPENVRVAIVSKSFEGKTDRTEQWYGTQYKQEAIPEDVIQKWQNADLNGKFKLPTKNEFIPTNFEILALEKDATPYPALIKDTAMSKLWFKQDDKFFLPKACLNFEFFSPFAYVDPLHCNMAYLYLELLKDSLNEYAYAAELAGLSYDLQNTIYGMYLSVKGYNDKQPILLKKITEKMATFEIDKKRFEIIKEAYMRSLNNFRAEQPHQHAMYYLRLLMTEVAWTKDELKEALDDVTLPRLKAFIPQLLSRLHIEALLHGNITKQAALGVMQMVEDTLIEHAHTKPLLPSQLVRYREVQLPDRGWFVYQRRNEVHNNCGIEIYYQTDMQSTSENMFLELFCQIISEPCFNTLRTKEQLGYIVFSGPRRANGIQGLRFIIQSEKPPHYLESRVEAFLITMEKAIEDMTEEAFQKHIQALAIRRLDKPKKLSAECAKYWGEIISQQYNYDRDNIEVAYLKTLSKDDIIKFYKEMLAVDAPRRHKVSVHVLAREMDSCPVVGEFPSQNDINLSEAPPLPQPEVIHNMTEFKRGLPLFPLVKPHINFMAAKL
Abz-GGFLRKHGQ-EDDnp [1]
  Hill coefficient: 2.1
  Vmax: 47.2 nmol/min/mg
  kcat: 0.0867 s⁻¹

B4: IDE^R429S (protein)
chain: TMNNPAIQRIEDHIVKSPEDKREYRGLELANGIKVLLISDPTTDKSSAALDVHIGSLSDPPNIPGLSHFCEHMLFLGTKKYPKENEYSQFLSEHAGSSNAFTSGEHTNYYFDVSHEHLEGALDRFAQFFLCPLFDASCKDREVNAVDSEHEKNVMNDAWRLFQLEKATGNPKHPFSKFGTGNKYTLETRPNQEGIDVREELLKFHSTYYSSNLMAICVLGRESLDDLTNLVVKLFSEVENKNVPLPEFPEHPFQEEHLKQLYKIVPIKDIRNLYVTFPIPDLQQYYKSNPGHYLGHLIGHEGPGSLLSELKSKGWVNTLVGGQKEGARGFMFFIINVDLTEEGLLHVEDIILHMFQYIQKLRAEGPQEWVFQECKDLNAVAFRFKDKESPRGYTSKIAGKLHYYPLNGVLTAEYLLEEFRPDLIDMVLDKLRPENVRVAIVSKSFEGKTDRTEQWYGTQYKQEAIPEDVIQKWQNADLNGKFKLPTKNEFIPTNFEILALEKDATPYPALIKDTAMSKLWFKQDDKFFLPKACLNFEFFSPFAYVDPLHCNMAYLYLELLKDSLNEYAYAAELAGLSYDLQNTIYGMYLSVKGYNDKQPILLKKITEKMATFEIDKKRFEIIKEAYMRSLNNFRAEQPHQHAMYYLRLLMTEVAWTKDELKEALDDVTLPRLKAFIPQLLSRLHIEALLHGNITKQAALGVMQMVEDTLIEHAHTKPLLPSQLVRYREVQLPDRGWFVYQRRNEVHNNCGIEIYYQTDMQSTSENMFLELFCQIISEPCFNTLRTKEQLGYIVFSGPRRANGIQGLRFIIQSEKPPHYLESRVEAFLITMEKAIEDMTEEAFQKHIQALAIRRLDKPKKLSAECAKYWGEIISQQYNYDRDNIEVAYLKTLSKDDIIKFYKEMLAVDAPRRHKVSVHVLAREMDSCPVVGEFPSQNDINLSEAPPLPQPEVIHNMTEFKRGLPLFPLVKPHINFMAAKL
Abz-GGFLRKHGQ-EDDnp [1]
  Hill coefficient: 1.7
  Vmax: 42.3 nmol/min/mg
  kcat: 0.0783 s⁻¹

B5: IDE^K898A,K899A,S901A (protein)
chain: TMNNPAIQRIEDHIVKSPEDKREYRGLELANGIKVLLISDPTTDKSSAALDVHIGSLSDPPNIPGLSHFCEHMLFLGTKKYPKENEYSQFLSEHAGSSNAFTSGEHTNYYFDVSHEHLEGALDRFAQFFLCPLFDASCKDREVNAVDSEHEKNVMNDAWRLFQLEKATGNPKHPFSKFGTGNKYTLETRPNQEGIDVREELLKFHSTYYSSNLMAICVLGRESLDDLTNLVVKLFSEVENKNVPLPEFPEHPFQEEHLKQLYKIVPIKDIRNLYVTFPIPDLQQYYKSNPGHYLGHLIGHEGPGSLLSELKSKGWVNTLVGGQKEGARGFMFFIINVDLTEEGLLHVEDIILHMFQYIQKLRAEGPQEWVFQECKDLNAVAFRFKDKERPRGYTSKIAGKLHYYPLNGVLTAEYLLEEFRPDLIDMVLDKLRPENVRVAIVSKSFEGKTDRTEQWYGTQYKQEAIPEDVIQKWQNADLNGKFKLPTKNEFIPTNFEILALEKDATPYPALIKDTAMSKLWFKQDDKFFLPKACLNFEFFSPFAYVDPLHCNMAYLYLELLKDSLNEYAYAAELAGLSYDLQNTIYGMYLSVKGYNDKQPILLKKITEKMATFEIDKKRFEIIKEAYMRSLNNFRAEQPHQHAMYYLRLLMTEVAWTKDELKEALDDVTLPRLKAFIPQLLSRLHIEALLHGNITKQAALGVMQMVEDTLIEHAHTKPLLPSQLVRYREVQLPDRGWFVYQRRNEVHNNCGIEIYYQTDMQSTSENMFLELFCQIISEPCFNTLRTKEQLGYIVFSGPRRANGIQGLRFIIQSEKPPHYLESRVEAFLITMEKAIEDMTEEAFQKHIQALAIRRLDKPAALAAECAKYWGEIISQQYNYDRDNIEVAYLKTLSKDDIIKFYKEMLAVDAPRRHKVSVHVLAREMDSCPVVGEFPSQNDINLSEAPPLPQPEVIHNMTEFKRGLPLFPLVKPHINFMAAKL
Abz-GGFLRKHGQ-EDDnp [1]
  Hill coefficient: 1.7
  Vmax: 141 nmol/min/mg
  kcat: 0.258 s⁻¹
bradykinin, P01042
  effect of bradykinin on the rate of Abz-GGFLRKHGQ-EDDnp hydrolysis: the observed rate for IDE^K898A,K899A,S901A was significantly reduced
